Source: patent publication US20230108494

Tests used:
[1] = system: T1, library peptide Leu-Leu-Val-Ala-Ala-Ala (negative control)
T1 sequence: LLVAAA

[2] = system: T2, TAS1 (Rh-based peptide/peptoid hybrid probe, Leu-Leu-Val-Tyr-Rh110-peptoid)
T2 sequence: LLVY

B1: 20S core particle (20S CP) of the proteasome, purified (enzyme, part only; not given: other 20S alpha and beta subunits)
chain: TTTLAFKFRHGVIVAADSRATAGAYIASQTVKKVIEINPYLLGTMAGGAADCSFWERLLARQCRIYELRNKERISVAAASKLLANMVYQYKGMGLSMGTMICGWDKRGPGLYYVDSEGNRISGATFSVGSGSVYAYGVMDRGYSYDLEVEQAYDLARRAIYQATYRDAYSGGAVNLYHVREDGWIRVSSDNVADLHEKYSGSTP
For B1, which “percent cleavage by LC/MS, 12 µM peptide with 9 nM 20S CP for one hour” value [1] is on record?
The value was “less than 10% of the peptide cleaved”.

What about the Rate of Hydrolysis (ΔRFU/min), probe at 30 µM with purified 20S CP [2] of the same protein?
Its Rate of Hydrolysis (ΔRFU/min), probe at 30 µM with purified 20S CP is 83.2 ΔRFU/min.
